Results published in patent US20220332848A1 (NANJING GENSCRIPT BIOTECH, published 2022).

T1: human CTLA-4 (human, UniProt P16410 36-223)
T1 construct: whole, on cells; also called CTLA-4 antigen; cytotoxic T lymphocyte-associated antigen 4
T1 sequence (looked up): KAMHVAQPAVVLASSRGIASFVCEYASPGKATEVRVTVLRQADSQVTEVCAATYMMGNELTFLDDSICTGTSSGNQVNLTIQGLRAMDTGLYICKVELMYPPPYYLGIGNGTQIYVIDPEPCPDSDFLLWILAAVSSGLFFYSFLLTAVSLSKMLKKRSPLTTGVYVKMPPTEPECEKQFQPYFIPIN


Molecular target: T1, human CTLA-4
Test: flow cytometry on CHO-K1 cells expressing CTLA-4
Experimental: For the constructed series of bispecific antibodies, the affinity of these samples with antigens was measured by using a flow cytometer. […] Then, an antibody-antigen binding curve was generated based on the geometric mean, raw data of four parameters was plotted by using the […] Prism V6.02 software, and a best fitted value program was compiled to analyze EC₅₀.

Binder	binding result
bispecific antibody CTLA4-G15-LN (bispecific antibody, human IgG4 S228P, kappa, also called L1 + H0) light: EVQLVESGGGLVQPGGSLRLSCAASGYTYSRHCLGWFRQAPGKGREAVSTIDSDGSTSYADSVKGRFTISRDNAKNTLYLQMNSLRPEDTAVYYCAIGPNPRYCSGAPNTRGAEHYFGYWGQGTLVTVSSGGGGSGGGGSGGGGSEIVLTQSPATLSLSPGERATLSCRASENVGTYISWYQQKPGQAPRLLIYGASNRYTGIPARFSGSGSGTDFTLTISSLEPEDFAVYYCGESYGHLYTFGGGTKVEIKRTVAAPSVFIFPPSDEQLKSGTASVVCLLNNFYPREAKVQWKVDNALQSGNSQESVTEQDSKDSTYSLSSTLTLSKADYEKHKVYACEVTHQGLSSPVTKSFNRGEC heavy: not shown	binds
bispecific antibody CTLA4-E-HN (bispecific antibody, human IgG4 S228P, kappa, also called H2 + L0) heavy: not shown light: EIVLTQSPATLSLSPGERATLSCRASENVGTYISWYQQKPGQAPRLLIYGASNRYTGIPARFSGSGSGTDFTLTISSLEPEDFAVYYCGESYGHLYTFGGGTKVEIKRTVAAPSVFIFPPSDEQLKSGTASVVCLLNNFYPREAKVQWKVDNALQSGNSQESVTEQDSKDSTYSLSSTLTLSKADYEKHKVYACEVTHQGLSSPVTKSFNRGEC	binds
bispecific antibody CTLA4-E-HC (bispecific antibody, human IgG4 S228P, kappa, also called H1 + L0) heavy: not shown light: EIVLTQSPATLSLSPGERATLSCRASENVGTYISWYQQKPGQAPRLLIYGASNRYTGIPARFSGSGSGTDFTLTISSLEPEDFAVYYCGESYGHLYTFGGGTKVEIKRTVAAPSVFIFPPSDEQLKSGTASVVCLLNNFYPREAKVQWKVDNALQSGNSQESVTEQDSKDSTYSLSSTLTLSKADYEKHKVYACEVTHQGLSSPVTKSFNRGEC	binds

Further lines, results first:

binding result	Binder
binds	bispecific antibody CTLA4-G9-LN (bispecific antibody, human IgG4 S228P, kappa, also called L2 + H0) light: EVQLVESGGGLVQPGGSLRLSCAASGYTYSRHCLGWFRQAPGKGREAVSTIDSDGSTSYADSVKGRFTISRDNAKNTLYLQMNSLRPEDTAVYYCAIGPNPRYCSGAPNTRGAEHYFGYWGQGTLVTVSSGGGGSGGGSEIVLTQSPATLSLSPGERATLSCRASENVGTYISWYQQKPGQAPRLLIYGASNRYTGIPARFSGSGSGTDFTLTISSLEPEDFAVYYCGESYGHLYTFGGGTKVEIKRTVAAPSVFIFPPSDEQLKSGTASVVCLLNNFYPREAKVQWKVDNALQSGNSQESVTEQDSKDSTYSLSSTLTLSKADYEKHKVYACEVTHQGLSSPVTKSFNRGEC heavy: not shown
binds	bispecific antibody CTLA4-G15-HN (bispecific antibody, human IgG4 S228P, kappa, also called H4 + L0) heavy: not shown light: EIVLTQSPATLSLSPGERATLSCRASENVGTYISWYQQKPGQAPRLLIYGASNRYTGIPARFSGSGSGTDFTLTISSLEPEDFAVYYCGESYGHLYTFGGGTKVEIKRTVAAPSVFIFPPSDEQLKSGTASVVCLLNNFYPREAKVQWKVDNALQSGNSQESVTEQDSKDSTYSLSSTLTLSKADYEKHKVYACEVTHQGLSSPVTKSFNRGEC
binds	bispecific antibody CTLA4-G15-HC (bispecific antibody, human IgG4 S228P, kappa, also called H3 + L0) heavy: not shown light: EIVLTQSPATLSLSPGERATLSCRASENVGTYISWYQQKPGQAPRLLIYGASNRYTGIPARFSGSGSGTDFTLTISSLEPEDFAVYYCGESYGHLYTFGGGTKVEIKRTVAAPSVFIFPPSDEQLKSGTASVVCLLNNFYPREAKVQWKVDNALQSGNSQESVTEQDSKDSTYSLSSTLTLSKADYEKHKVYACEVTHQGLSSPVTKSFNRGEC
